# In patent publication US20090123479A1 (published 2009):
# Changes are numbered by the printed parent chain.
# T1: recombinant human IL-23 (human, UniProt Q9NPF7 20-189; P29460 23-328)
# T1 construct: also called hIL-23
# T1 sequence 1: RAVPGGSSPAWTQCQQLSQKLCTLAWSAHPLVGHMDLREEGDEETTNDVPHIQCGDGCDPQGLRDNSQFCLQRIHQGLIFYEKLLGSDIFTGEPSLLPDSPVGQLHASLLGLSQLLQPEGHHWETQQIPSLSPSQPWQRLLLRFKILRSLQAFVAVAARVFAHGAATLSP
# T1 sequence 2: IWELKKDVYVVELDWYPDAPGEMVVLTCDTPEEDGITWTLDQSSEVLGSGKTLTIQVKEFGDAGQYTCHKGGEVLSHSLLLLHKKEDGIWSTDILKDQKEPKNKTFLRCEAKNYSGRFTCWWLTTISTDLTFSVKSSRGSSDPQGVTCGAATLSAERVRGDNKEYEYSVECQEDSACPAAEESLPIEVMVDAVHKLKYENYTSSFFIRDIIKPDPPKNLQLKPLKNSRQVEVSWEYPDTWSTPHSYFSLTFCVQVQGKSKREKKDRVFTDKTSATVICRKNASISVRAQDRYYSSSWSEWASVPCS
# T2: recombinant cynomologus IL-23 (cynomolgus, limits assumed)
# T2 construct: also called cynomolgus IL-23; cyno IL23
# T2 chain 1: T1 sequence 1 with T12A, H75R, L131P
# T2 chain 2: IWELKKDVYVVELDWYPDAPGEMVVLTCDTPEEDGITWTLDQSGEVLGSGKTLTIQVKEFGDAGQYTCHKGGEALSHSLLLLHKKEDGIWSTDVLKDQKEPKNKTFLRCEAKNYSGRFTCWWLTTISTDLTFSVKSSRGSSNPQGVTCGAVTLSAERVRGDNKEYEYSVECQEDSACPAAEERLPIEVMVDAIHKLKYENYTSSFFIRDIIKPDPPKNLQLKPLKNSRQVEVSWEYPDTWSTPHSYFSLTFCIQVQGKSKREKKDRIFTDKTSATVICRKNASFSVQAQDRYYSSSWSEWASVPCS
# B1: A3N1 (antibody, human IgG1, kappa, V domains shown)
# VH: QVQLVQSGAEVKKPGSSVKVSCKASGYTFTSYGITWVRQAPGQGLEWMGENYPRSGNTYYNEKFKGRVTITADKSTSTAYMELSSLRSEDTAVYYCARSEFISTVVAPYYYALDYWGQGTLVTVSS
# VL: DIVMTQTPLSLSVTPGQPASISCKASKKVTIFGSISALHWYLQKPGQPPQLIYNGAKLESGVSDRFSDSGSQNRSPFGNQLSFTLKISRVEAEDVGVYYCLQNKEVPYTFGGGTKVEIKR
# notes: Full length chains
# B2: A3N2 (antibody, human IgG1, kappa, V domains shown)
# VH: B1 VH
# VL: DIVMTQTPLSLSVTPGQPASISCKASKKVTIFGSISALHWYLQKPGQPPQLIYNGAKLESGVSDRFSDSGSGTDFTLKISRVEAEDVGVYYCLQNKEVPYTFGGGTKVEIKR
# notes: Full length chains
# B3: A5M0 (antibody, human IgG1, kappa, V domains shown)
# VH: B1 VH with S99A
# VL: DIVMTQSPDSLAVSLGERATINCKASKKVTIFGSISALHWYQQKPGQPPKLIYNGAKLESGVPDRFSGSGSGTDFTLTISSLQAEDVAVYYCLQNKEVPYTFGGGTKVEIKR
# notes: Full length chains
# B4: A9M3 (antibody, V domains shown)
# VH: B1 VH with N51D, S99V
# VL: DIVMTQSPDSLAVSLGERATINCKASKKVTIFGSTSALHWYQQKPGQPPKLIYNGAKLESGVPDRFSGSGSGTDFTLTISSLQAEDVAVYYCLQNKEVPYTFGGGTKVEIK
# B5: A8M3 (antibody, V domains shown)
# VH: B1 VH with N51D, S99A
# VL: B4 VL
# B6: A6M0 (antibody, human IgG1, kappa, V domains shown)
# VH: B1 VH with S99V
# VL: B3 VL
# notes: Full length chains
# B7: A7M3 (antibody, human IgG1, kappa, V domains shown)
# VH: B1 VH with N51D
# VL: B3 VL with I35T
# notes: Full length chains
# B8: A12M3 (antibody, V domains shown)
# VH: B1 VH with T30A, V93M, S99V
# VL: B4 VL
# B9: A12M4 (antibody, V domains shown)
# VH: B1 VH with T30A, V93M, S99V
# VL: B4 VL with L58P
# B10: A12.5M4 (antibody, V domains shown)
# VH: B1 VH with T30A, S99V
# VL: B4 VL with L58P
# Target: T1, recombinant human IL-23
# Assay: sandwich ELISA (optimised protocol, OD450): plate coated with anti-human IL-12, antibody pre-incubated with constant human IL-23, bound antibody detected with anti-human IgG gamma chain HRP; purified antibody
# Experimental: Optimised assay conditions: Plates were coated with anti human IL12 at 2 μg/diluent (phosphate buffered saline). 50 μl/well of this mixture was incubated overnight at 4° C. The plates were then washed three times with Phosphate Buffered Saline with 0.05% Tween 20 (PBST). Plates were blocked with 4% skim milk powder (Fluka BioChemika #70166) PBS 200 μl/well for a minimum of 1 hour at room temperature. The plates were then washed three times with Phosphate Buffered Saline+0.05% Tween 20 (PBST). Various concentrations of antibody were incubated in a separate plate with a constant concentration of IL-23 for 1 hour at room temperature. 50 ul of each mixture were transferred to the assay plate and incubated at RT for 1 hr. They were then washed three times with Phosphate Buffered Saline+0.05% Tween 20 (PBST). […] 50 μl/well of the detection antibody was added and incubated at RT for 1 hour. The plates were then washed three times with Phosphate Buffered Saline+0.05% Tween 20 (PBST). 50 μl/well of TMB was added to the plates and incubated at RT for 10 min. 50 μl/well of 1 MH₂SO₄ was added. The plate was read at OD450 nm using the SOftmaxPRO versamax plate reader.
row,EC50 (read off the curve) [nM],Binder
1,~0.04,B1
2,~0.04,B2

# Target: T1, recombinant human IL-23
# Assay: IL-23/IL-23R inhibition ELISA (optimised protocol, OD450): plate coated with human IL23R Fc chimera, antibody pre-incubated with constant human IL-23, bound IL-23 detected with biotinylated anti-human IL-12; purified antibody
# Experimental: (§1) Optimised protocol: Plates were coated with human IL23R Fc chimera at […] (phosphate buffered saline). 50 μl/well of this mixture was incubated overnight at 4° C. The plates were then washed three times with Phosphate Buffered Saline with 0.05% Tween 20 (PBST). Plates were blocked with 4% skim milk powder (Fluka BioChemika #70166) PBST 100 μl/well for a minimum of 1 hour at room temperature. The plates were then washed three times with Phosphate Buffered Saline+0.05% Tween 20 (PBST). Various concentrations of antibody were incubated in a separate plate with a constant concentration of IL-23 for 1 hour at room temperature. 50 ul of each mixture were transferred to the assay plate and incubated at RT for 1 hr. They were then washed three times with Phosphate Buffered Saline+0.05% Tween 20 (PBST). Bound IL23 was detected by anti human 1L12 Biotin labelled Ab (R&D systems BAF219) diluted to 100 ng/ml in 4% skim milk powder (Fluka BioChemika #70166) PBST. 50 μl/well of the biotinylated antibody was added and incubated at RT for 1 hour. The plates were then washed three times with Phosphate Buffered Saline+0.05% Tween 20 (PBST). SA HRP (GE healthcare RPN4401) was diluted 1/4000 in 4% skim m ilk powder (Fluka BioChemika #70166) PBS, 50 μl/well was added to the plates. The plates were then washed three times with Phosphate Buffered Saline+0.05% Tween 20 (PBST). 50 ul/well of TMB was added to the plates and incubated at RT for 15 min. 25 μl/well of 3 MH₂SO₄ was added to the wells already containing TMB. The plate was read at OD450 nm using the SOftmaxPRO versamax plate reader.
row,IC50 (read off the curve) [nM],Binder
1,~0.2,B3
2,~1,B1
3,~0.8,B2
4,~0.1,B4
5,~0.2,B5
6,~0.2,B6
7,~0.2,B7

# Target: T2, recombinant cynomologus IL-23
# Assay: IL-23/IL-23R inhibition ELISA (optimised protocol, OD450): plate coated with human IL23R Fc chimera, antibody pre-incubated with constant cynomolgus IL-23, bound IL-23 detected with biotinylated anti-human IL-12; purified antibody
# Experimental: as §1
row,IC50 (read off the curve) [nM],Binder
1,~0.9,B1
2,~1,B2

# Target: T1, recombinant human IL-23
# Assay: SPR (Biacore 3000), CHO supernatant antibody captured on Protein A or anti-human IgG, IL-23 analyte at 256, 64, 16, 4 nM
Kd [nM],koff [s⁻¹],kon [M⁻¹ s⁻¹],Binder
2.3,0.00039,170000,B1
1.5,0.00041,280000,B2

# Target: T1, recombinant human IL-23
# Assay: SPR (Biacore T100), tissue culture supernatant antibody captured on anti-human IgG, IL-23 analyte
# Experimental: Biacore analysis was carried out using a capture surface on a CM5 chip. Anti-human IgG (BR-1008-39) was used as the capturing agent. Anti-human IgG was coupled to a CM5 biosensor chip by primary amine coupling. Humanized antibody was captured on this immobilised surface and defined concentrations of IL-23 were passed over this captured surface. An injection of buffer over the captured antibody surface was used for double-referencing. […] T100 Biacore machine was used to generate the data; all runs were carried out at 25° C. using HBS EP. Data was analysed using the software inherent to the machine and fitted to the 1:1 model of binding. Tables 7 and 8 detail the IL-23 binding analysis carried out on the 8C92H6.HC1LC1 chimera and selected humanized variants in two separate experiments. […] The data shown for the humanized variants is representative of a number of runs. The chimeric mAb (8C9H6.HC1LC1) was only run once in each experiment, so data shown for this mAb is from that one run.
Kd [nM],koff [s⁻¹],kon [M⁻¹ s⁻¹],Binder
0.0794,0.000202,2.54e+06,B8
0.0553,0.000163,2.94e+06,B9
0.0483,0.000151,3.12e+06,B10

# Target: T1, recombinant human IL-23
# Assay: SPR (Biacore T100), purified antibody captured on anti-human IgG, IL-23 analyte, 1:1 model
# Experimental: Biacore analysis was carried out using a capture surface on a CM5 chip. Anti-human IgG (BR-1008-39) was used as the capturing agent. Anti-human IgG was coupled to a CM5 biosensor chip by primary amine coupling. Humanized antibody was captured on this immobilised surface and defined concentrations of IL-23 were passed over this captured surface. An injection of buffer over the captured antibody surface was used for double-referencing. […] T100 Biacore machine was used to generate the data; all runs were carried out at 25° C. using HBS EP. Data was analysed using the software inherent to the machine and fitted to the 1:1 model of binding. Tables 7 and 8 detail the IL-23 binding analysis carried out on the 8C92H6.HC1LC1 chimera and selected humanized variants in two separate experiments. Data presented in Tables 7 and 8 are from purified antibody samples. The data shown for the humanized variants is representative of a number of runs. The chimeric mAb (8C9H6.HC1LC1) was only run once in each experiment, so data shown for this mAb is from that one run.
Kd [nM],koff [s⁻¹],kon [M⁻¹ s⁻¹],Binder
0.103,0.000171,1.65e+06,B3
0.065,0.000171,2.64e+06,B4
0.08,0.000135,1.67e+06,B5
0.101,0.000298,2.95e+06,B6
0.144,0.000145,1.01e+06,B7

# Target: T1, recombinant human IL-23
# Assay: SPR (Biacore T100), CHO supernatant antibody captured on Protein A or anti-human IgG, IL-23 analyte at 256, 64, 16, 4, 1 nM
Kd [nM],koff [s⁻¹],kon [M⁻¹ s⁻¹],Binder
4.1,0.00035,84000,B1
1.6,0.00038,240000,B2
